Paper PMC9114808

Target: 14-3-3 protein gamma (UniProt P61982)
Assay: peptide bead pull-down, label-free MS
Conditions: reference: unphosphorylated peptide; sites T426

binding against the reference: stronger
Substance: Septin 7 (Sept7) C-terminal tail peptide C-terminal tail, 416-438 (from UniProt Q16181) pT426 peptide
